From patent publication US20220396615A1 (NANJING GENSCRIPT BIOTECH, published 2022)

B1: 53A2F9 (rat) (antibody, V domains shown)
VH: QVQLKESGPGLVQPSQTLSLTCTVSGFSLTSHTVSWIRQPPGRGLEWMGKMWSNGDTDYDSAIRSRLSITRDTSKSQVFLKINSLQTEDTAMYFCARYYFSSYGGGYFDYWGQGVMVTVSS
VL: DTVLTQSPALAVSLGQRVTISCRASKSVSTYMHWYQQKSGQQPKLLIYSASNLESGVPSRFSGSGSGTDFTLTIDPVEADDIANYYCQQSDELPDTFGAGTKLELK
notes: Rat hybridoma clone; Made recombinantly in HEK293-6E cells as variable region + constant region and purified on protein A as IgG
B2: 61G1D8 (rat) (antibody, V domains shown)
VH: EVQLLESGGGLVQPGRSMKLSCAASGFTFSSFPMAWVRQTPSKALEWVATISPSGGTSYSRDSVKGRFTISRDNANSTLCLHMDSLKSEDTATYYCLRERIYNTYFDYWGQGVMVTVSS
VL: DIRMTHSPASLSASLGETVSIECLPSEDISSDLAWYQQKPGKSPQLLIYNANTLPNGVPSRFSGSRSGAQYFLKINSLQSEDVATYFCQQYDSYPYTFGTGTKLELK
notes: as for B1
B3: 23A9H3 (antibody, V domains shown)
VH: QVQLQQSGAELAKPGASVKMSCKTSGYTFTNYWMHWVKQRPGQGLEWIGYVIPSTGYTDYNQSFKDKATLTADKSSNTAYMQVNSLTSEDSAVYYCASLLPGFAYWGQGTLVTVSA
VL: DVVMTQTPLSLPVSLGDQASISCRSSQSLVDSNGNTYLHWYLQKPGQSPKLLIYKVSNRFSGVPDRFSGSGSGTDFTLKISRVEAEDLGVYFCSQSTHVPPTFGGGTKLEIK
notes: Mouse hybridoma clone; Made recombinantly in HEK293-6E cells as variable region + constant region and purified on protein A as IgG
B4: 29D6B5 (antibody, V domains shown)
VH: QVQLQQSGAELAEPGASVKMSCKASGYNFNNYWMHWVKQGPGQGLEWIGYIDPRTASIYYNQKFKDKATLTADKSSSTAYMQLSSLTSEDSAVYYCARILYGKYDVWGAGTTVIVSS
VL: DVVLTQTPLSLPVSLGNQASISCRSSQSLVDSNGNTYLHWYLQKPGQSPKVLIHKVSNRFSGVPDRFSGSGSGTDFTLKISRVEAEDLGVYFCSQSTHVPPTFGGGTKLEIK
notes: as for B3
B5: 41A10B8 (antibody, V domains shown)
VH: EVKLEESGGGLVQPGGSMKLSCAASGFTFSDAWMDWVRQSPDKGLEWVAEIRSKTYHPATYYTKSVRGRFTISRDDSKSSVYLQMNNLGAEDTGIYYCTRPRYYGGYFDYWGQGTTLTVSS
VL: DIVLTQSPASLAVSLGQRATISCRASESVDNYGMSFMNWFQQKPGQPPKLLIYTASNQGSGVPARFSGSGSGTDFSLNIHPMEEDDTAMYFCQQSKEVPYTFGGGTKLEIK
notes: as for B3
B6: 49F10H6 (antibody, V domains shown)
VH: QVQLQQPGAELVKPGASVKMSCKASGYTFTNYIIHWIKQTPGQGLEWIGAIYPGNGDTSYSQKFKDKATLTADRSSSTAYMQLSSLTSEDSAVYYCARGDAGYSAWFAYWGQGTLVTVSA
VL: NIVLTQSPASLAVSLGQRATISCSASESVDSYGNNFMHWYQQRPGQPPKLLIYLASKLESGVPARFSGSGSRTEFTLTIDPVEAEDAATYYCQQNNEDPLTFGAGTKLELK
notes: as for B3

Assays:
[1] = target: T1, Tag-free human IL6 recombinant protein (GenScript, Cat. No. Z03034) (human, UniProt P05231 30-212); assay: indirect ELISA, IL6 coated at 0.5 µg/ml, antibody titrated
T1 construct: Bought recombinant protein; The catalogue number is printed only for the immunogen, and the assays say only 'recombinant IL6 protein' or 'IL6'; also called recombinant IL6 protein; Interleukin 6
Protocol: The purified antibodies were evaluated for the binding ability to IL6 by indirect ELISA. The ELISA plate (Nunc) was coated with 0.5 μg/ml recombinant IL6 protein in PBS at 100 μl/well at 4° C. overnight. The plate was washed with PBS-T (0.05% Tween) and was blocked with PBST containing 1% BSA at 200 μl/well at 37° C. for 0.5 h. The blocking solution was then discarded. 100 μl 10 μg/ml purified antibody was added to the first well, and 3-fold gradient dilution was performed for 11 test concentration gradients in total. Incubation was then performed at room temperature for 1 h. The plate was washed with PBST for three times and incubated with horseradish peroxidase-conjugated goat anti-mouse/rat IgG (Fab-specific) (GenScript) at 100 μl/well at 37° C. for 0.5 h. The plate was washed with PBST for five times, and TMB chromogenic solution (GenScript) was then added and incubation was performed in dark for 15 min at room temperature. The reaction was stopped by adding 50 μl 1M HCl stop solution (Sigma). The plate was read at 450 nm by a microplate reader. The binding ability of the clones 8H10B7E6, 23A9H3, 29D6B5, 41A10B8, 49F10H6, 53A2F9 (rat), and 61G1D8 (rat) for recombinant protein IL6 was shown in FIG. 3.

[2] = target: T1, Tag-free human IL6 recombinant protein …; assay: cell-based or functional assay

Binder | EC50 [1] | inhibitory IC50, IL6-dependent TF-1 cell proliferation [2] [µg/mL]
B1 | 0.04 nM | 3.95
B2 | < 0.025 µg/mL | 4.54
B3 | < 0.025 µg/mL | 
B4 | < 0.025 µg/mL | 
B5 | < 0.025 µg/mL | 
B6 | < 0.025 µg/mL | 
